In IntAct's records for PubMed 14679199:

B1: SH3 and multiple ankyrin repeat domains protein 2 (Rattus norvegicus (Rat)), Q9QX74-4 (parent)
chain: MMSVPGGGAATVMMTGYNNGRYPRNSLYSDCIIEDKTVVLQKKDNEGFGFVLRGAKADTPIEEFTPTPAFPALQYLESVDEGGVAWQAGLRTGDFLIEVNNENVVKVGHRQVVNMIRQGGNHLVLKVVTVTRNLDPDDTARKKAPPPPKRAPTTALTLRSKSMTAELEELVDKASVRKKKDKPEEIVPASKPSRTAENVAIESRVATIKQRPTSRCFPAASDVNSVYERQGIAVMTPTVPGSPKGPFLGLPRGTMRRQKSIDSRIFLSGITEEERQFLAPPMLKFTRSLSMPDTSEDIPPPPQSVPPSPPPPSPTTYNCPRSPTPRVYGTIKPAFNQNPVAKVPPATRSDTVATMMREKGMFYRRELDRFSLDSEDVYSRSPAPQAAFRTKRGQMPENPYSEVGKIASKAVYVPAKPARRKGMLVKQSNVEDSPEKTCSIPIPTIIVKEPSTSSSGKSSQGSSMEIDPQATEPGQLRPDDSLTVSSPFAAAIAGAVRDREKRLEARRNSPAFLSTDLGDEDVGLGPPAPRMQPSKFPEEGGFGDEDETEQPLLPTPGAAPRELENHFLGGGEAGAQGEAGGPLSSTSKAKGPESGPAAALKSSSPASPENYVHPLTGRLLDPSSPLALALSARDRAMQESQQGHKGEAPKADLNKPLYIDTKMRPSVESGFPPVTRQNTRGPLRRQETENKYETDLSKDRRADDKKNMLINIVDTAQQKSAGLLMVHTVDIPVAGPPLEEEEDREDGDTKPDHSPSTVPEGVPKTEGALQISAAPEPAAAPGRTIVAAGSVEEAVILPFRIPPPPLASVDLDEDFLFTEPLPPPLEFANSFDIPDDRAASVPALADLVKQKKSDTPQPPSLNSSQPANSTDSKKPAGISNCLPSSFLPPPESFDAVTDSGIEEVDSRSSSDHHLETTSTISTVSSISTLSSEGGESMDTCTVYADGQAFVVDKPPVPPKPKMKPIVHKSNALYQDTLPEEDTDGFVIPPPAPPPPPGSAQAGVAKVIQPRTSKLWGDVTEVKSPILSGPKANVISELNSILQQMNRGKSVKPGEGLELPVGAKSANLAPRSPEVMSTVSGTRSTTVTFTVRPGTSQPITLQSRPPDYESRTSGPRRAPSPVVSPTELSKEILPTPPSAAAASPSPTLSDVFSLPSQSPAGDLFGLNPAGRSRSPSPSILQQPISNKPFTTKPVHLWTKPDVADWLESLNLGEHKETFMDNEIDGSHLPNLQKEDLIDLGVTRVGHRMNIERALKQLLDR

Variants of: B1
Conditions: with cftr_mouse Cftr

effect of a mutation on the interaction | Variant
disrupting interaction | H109R
disrupting interaction | H109A
with no effect | H109Q
